# From publication PMC7619462
# T1: NPR-33 (C. elegans) (UniProt O62189)
# T1 sequence: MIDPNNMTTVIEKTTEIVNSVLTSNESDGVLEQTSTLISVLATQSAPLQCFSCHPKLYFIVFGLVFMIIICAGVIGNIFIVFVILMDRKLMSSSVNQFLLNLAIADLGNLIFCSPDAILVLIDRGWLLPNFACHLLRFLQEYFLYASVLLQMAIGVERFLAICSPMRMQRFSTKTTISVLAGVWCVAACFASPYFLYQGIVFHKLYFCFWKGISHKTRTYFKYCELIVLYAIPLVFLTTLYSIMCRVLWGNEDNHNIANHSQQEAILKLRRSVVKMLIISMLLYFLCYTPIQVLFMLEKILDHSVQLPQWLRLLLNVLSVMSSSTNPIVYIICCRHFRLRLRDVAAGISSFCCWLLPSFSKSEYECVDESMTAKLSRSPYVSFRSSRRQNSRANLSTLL
# What was measured:
# [1] = target: NPR-44 (C. elegans) (UniProt Q9N5L5)
# UniProt Q9N5L5, sequence (Q9N5L5 entry or part of it): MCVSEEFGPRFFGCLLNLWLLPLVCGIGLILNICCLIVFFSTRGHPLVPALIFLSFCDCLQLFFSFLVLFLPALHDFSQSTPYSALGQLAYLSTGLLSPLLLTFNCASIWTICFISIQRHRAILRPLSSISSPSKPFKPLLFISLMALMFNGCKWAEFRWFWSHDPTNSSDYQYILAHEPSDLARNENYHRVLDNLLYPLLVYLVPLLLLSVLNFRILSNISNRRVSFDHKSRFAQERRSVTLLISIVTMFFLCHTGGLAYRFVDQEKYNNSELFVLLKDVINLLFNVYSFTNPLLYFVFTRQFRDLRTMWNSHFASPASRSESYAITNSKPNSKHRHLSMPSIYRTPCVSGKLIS
# [2] = target: T1, NPR-33 (C. elegans)
binder,measurement,setting,value
LHRIGGNIVM [NLP-69-1],"EC50 of receptor activation: calcium mobilization (aequorin) in CHO cells co-expressing the GPCR and Gα16, concentration-response curve, n = 6; also significant calcium response at 10 μM",[1],232 nM
WYDWQNVPHALQQ [NLP-70-2],"EC50 of receptor activation: calcium mobilization (aequorin) in CHO cells co-expressing the GPCR and Gα16, concentration-response curve, n = 6; also significant calcium response at 10 μM",[2],76.3 nM
WYEWNNDMEIT [NLP-70-1],"EC50 of receptor activation: calcium mobilization (aequorin) in CHO cells co-expressing the GPCR and Gα16, concentration-response curve, n = 6",[2],1160 nM
